Measurements taken from article PMC5299410.
“And” between values parts separate entries of the source, which are not always exact repeats. Equal entries are not always repeated.

How the values were obtained:
Cys32 [1] = target: T1, Cys32 (UniProt position 33, FWAEWCGPCKM); assay: chemical modification; details: 120 mM NaCl plus buffer components, 30 mM ACES, 15.6 mM ethanolamine, 15.6 mM TRIS, 0.1 mM DTPA, reduced (dithiol) thioredoxin, DTT removed by gel filtration, folded
Cys32 [2] = target: T1, Cys32; assay: fluorescence; details: not stated (no added NaCl mentioned); 15 mM acetic acid, 15 mM MES, 30 mM Tris, 100 μM dtpa, 2 mM DTT; reduced (dithiol) thioredoxin in the presence of 2 mM DTT; folded
Cys35 = Cys35 (UniProt position 36, EWCGPCKMIAP); assay: chemical modification; details: 120 mM NaCl plus buffer components, 30 mM ACES, 15.6 mM ethanolamine, 15.6 mM TRIS, 0.1 mM DTPA, reduced (dithiol) thioredoxin, DTT removed by gel filtration, folded

Substance | pKa (Cys32 [1]) | pKa (Cys32 [2]) | pKa (Cys35)
Thioredoxin 1 (EcTRX) L107A (Escherichia coli; L107A) | 7.3 ± 0.1 | – | –
Thioredoxin 1 (EcTRX) E101G (Escherichia coli; E101G) | 6.80 ± 0.20 | 7.1 ± 0.1 and 7.10 ± 0.04 | 9.0 ± 0.2
Thioredoxin 1 (EcTRX) N106A (Escherichia coli; N106A) | 6.5 ± 0.1 | – | 8.9 ± 0.1
Thioredoxin 1 (EcTRX) L94A (Escherichia coli; L94A) | 6.9 ± 0.1 | – | 8.8 ± 0.1
Thioredoxin 1 (EcTRX), wild type (Escherichia coli) | 7.3 ± 0.3 | 7.5 ± 0.2 and 7.23 ± 0.06 | 9.3 ± 0.3
